# In article PMC7801515:
# pKd: −log10 of the molar value.
# Target: P2C-1F11 monoclonal antibody (human)
# Experiment: SPR
substance,measurement,value
"SARS-CoV-2 receptor-binding domain (RBD), residues Arg319 to Lys529 (from UniProt P0DTC2 319-529) (domain or fragment)",pKd,8.76
